Patent US20190054137A1 (INDIANA UNIVERSITY RESEARCH AND TECHNOLOGY, published 2019)

Target: T1, Recombinant human p65 protein (r-p65) with DDK tag (OriGene catalog number TP320780) (human, UniProt Q04206 1-551)
T1 construct: mature; also called r-p65-DDK; human r-p65; not shown: DDK tag
Experiment: plate-bound PGA probed with r-p65-DDK, method of Friguet, Scatchard analysis

T1 sequence (Q04206 whole entry): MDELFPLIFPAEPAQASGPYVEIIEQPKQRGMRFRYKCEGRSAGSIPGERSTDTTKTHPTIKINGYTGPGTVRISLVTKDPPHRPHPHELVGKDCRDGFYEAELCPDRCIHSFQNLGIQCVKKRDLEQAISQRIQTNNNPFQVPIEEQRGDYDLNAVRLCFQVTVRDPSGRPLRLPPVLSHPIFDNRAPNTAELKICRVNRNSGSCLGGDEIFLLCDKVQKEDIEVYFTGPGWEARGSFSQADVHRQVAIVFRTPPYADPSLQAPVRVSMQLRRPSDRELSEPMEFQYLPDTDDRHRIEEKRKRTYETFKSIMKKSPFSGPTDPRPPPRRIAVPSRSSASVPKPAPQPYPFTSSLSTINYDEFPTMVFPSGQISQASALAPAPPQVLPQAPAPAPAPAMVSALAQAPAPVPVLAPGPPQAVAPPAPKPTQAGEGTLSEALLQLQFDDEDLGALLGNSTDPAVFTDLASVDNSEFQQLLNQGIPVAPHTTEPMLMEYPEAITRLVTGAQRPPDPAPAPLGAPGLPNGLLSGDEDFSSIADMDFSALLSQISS

**Q.** How did the Kd turn out when Ac-EPAPLAPYG-NH2 (also called Analog 3 (GA-2)) [PGA-2] was run?
**A.** Its Kd is 2.29 µM.

**Q.** Which Kd does the source give for Ac-APKPYQPRG-NH2 (also called Analog 20 (GA-1)) [PGA-1] here?
**A.** Its Kd is 4.28 µM.

**Q.** How did the Kd turn out when Ac-EPAPYQPEG-NH2 (also called Analog 14 (GA-3)) [PGA-3] was run?
**A.** The Kd was 3.27 µM.

**Q.** Ac-EPAPEQPDG-NH2 (also called Analog 8 (GA-5)) [PGA-5] was tested. Which Kd did it give?
**A.** The Kd was 3.4 µM.

**Q.** For Ac-EPAPESPQV-NH2 (also called Analog 7 (GA-4)) [PGA-4], which Kd is on record?
**A.** The Kd was 3.28 µM.
